# T1: APC9182-AA
# T1 chain: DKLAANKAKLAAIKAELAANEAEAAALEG
# T2: APC5531-AA
# T2 chain: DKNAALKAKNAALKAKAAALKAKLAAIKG
# T3: APC9141-AA
# T3 chain: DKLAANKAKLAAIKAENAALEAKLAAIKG
# T4: APC8516-AA
# T4 chain: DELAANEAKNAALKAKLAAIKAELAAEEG
# T5: APC8401-AA
# T5 chain: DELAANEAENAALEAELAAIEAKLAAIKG
# T6: APC9291-AA
# T6 chain: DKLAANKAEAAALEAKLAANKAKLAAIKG
# T7: APC9806-AA
# T7 chain: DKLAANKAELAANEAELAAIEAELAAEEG
# T8: APC7524-AA
# T8 chain: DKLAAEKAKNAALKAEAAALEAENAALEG
# T9: APC6088-AA
# T9 chain: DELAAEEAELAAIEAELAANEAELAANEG
# T10: 4H855-bH
# T10 chain: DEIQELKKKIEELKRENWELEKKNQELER
# T11: 4H797-bH
# T11 chain: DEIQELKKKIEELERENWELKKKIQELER
# T12: 4H968-bH
# T12 chain: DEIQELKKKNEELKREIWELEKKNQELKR
# T13: 4H780-bH
# T13 chain: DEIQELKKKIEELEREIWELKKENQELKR
# T14: 4H918-bH
# T14 chain: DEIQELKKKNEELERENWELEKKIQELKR
# T15: 4H953-bH
# T15 chain: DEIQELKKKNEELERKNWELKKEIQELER
# T16: 4H797-bN
# T16 chain: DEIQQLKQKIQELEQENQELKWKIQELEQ
# T17: 4H780-bN
# T17 chain: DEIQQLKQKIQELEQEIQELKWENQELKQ
# T18: 4H968-bN
# T18 chain: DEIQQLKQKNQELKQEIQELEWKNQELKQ
# T19: 4H953-bN
# T19 chain: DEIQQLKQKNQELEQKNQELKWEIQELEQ
# T20: 4H918-bN
# T20 chain: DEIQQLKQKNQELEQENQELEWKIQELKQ
# T21: 4H855-bN
# T21 chain: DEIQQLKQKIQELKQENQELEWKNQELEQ
# T22: 4H883-bN
# T22 chain: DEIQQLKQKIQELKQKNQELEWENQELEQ
# T23: 4H967-bN
# T23 chain: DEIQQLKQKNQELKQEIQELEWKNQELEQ
# T24: 4H754-bN
# T24 chain: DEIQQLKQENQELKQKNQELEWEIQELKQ
# T25: 4H908-bN
# T25 chain: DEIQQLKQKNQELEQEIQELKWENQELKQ
# T26: 4H56-AA
# T26 chain: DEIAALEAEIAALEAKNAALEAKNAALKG
# T27: 4H3438-AA
# T27 chain: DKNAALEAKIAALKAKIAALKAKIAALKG
# T28: 4H_BCR
# T28 chain: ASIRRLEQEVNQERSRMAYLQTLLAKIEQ
# T29: 4H406-AA
# T29 chain: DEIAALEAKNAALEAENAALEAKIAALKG
# T30: 4H_APH
# T30 chain: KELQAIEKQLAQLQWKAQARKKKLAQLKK
# T31: 4H452-AA
# T31 chain: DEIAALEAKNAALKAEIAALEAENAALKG
# T32: 4H3073-AA
# T32 chain: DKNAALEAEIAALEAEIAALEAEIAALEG
# T33: 4H347-AA
# T33 chain: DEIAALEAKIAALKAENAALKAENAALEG
# T34: 4H797-bA
# T34 chain: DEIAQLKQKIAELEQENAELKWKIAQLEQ
# T35: 4H780-bA
# T35 chain: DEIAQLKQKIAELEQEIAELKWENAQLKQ
# T36: 4H968-bA
# T36 chain: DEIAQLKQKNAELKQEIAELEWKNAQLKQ
# T37: 4H918-bA
# T37 chain: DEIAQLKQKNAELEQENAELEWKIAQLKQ
# T38: 4H953-bA
# T38 chain: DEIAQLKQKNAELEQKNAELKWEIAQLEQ
# T39: 4H855-bA
# T39 chain: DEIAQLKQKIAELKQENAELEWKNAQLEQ
# Columns and labels:
# APC9182-AA = molecular target: T1, APC9182-AA; experiment: two-hybrid library CCmax; conditions: mean of both orientations;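 note: natural log of median RNA to DNA barcode read ratio; higher means stronger binding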
# APC5531-AA = molecular target: T2, APC5531-AA; experiment: two-hybrid library CCmax;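 note: natural log of median RNA to DNA barcode read ratio; higher means stronger binding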
# APC9141-AA = molecular target: T3, APC9141-AA; experiment: two-hybrid library CCmax; conditions: mean of both orientations;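 note: natural log of median RNA to DNA barcode read ratio; higher means stronger binding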
# APC8516-AA = molecular target: T4, APC8516-AA; experiment: two-hybrid library CCmax; conditions: mean of both orientations;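 note: natural log of median RNA to DNA barcode read ratio; higher means stronger binding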
# APC8401-AA = molecular target: T5, APC8401-AA; experiment: two-hybrid library CCmax; conditions: mean of both orientations;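 note: natural log of median RNA to DNA barcode read ratio; higher means stronger binding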
# APC9291-AA = molecular target: T6, APC9291-AA; experiment: two-hybrid library CCmax; conditions: mean of both orientations;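 note: natural log of median RNA to DNA barcode read ratio; higher means stronger binding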
# APC9806-AA = molecular target: T7, APC9806-AA; experiment: two-hybrid library CCmax; conditions: mean of both orientations
# APC7524-AA = molecular target: T8, APC7524-AA; experiment: two-hybrid library CCmax; conditions: mean of both orientations
# APC6088-AA = molecular target: T9, APC6088-AA; experiment: two-hybrid library CCmax; conditions: mean of both orientations
# 4H855-bH = molecular target: T10, 4H855-bH; experiment: two-hybrid library CCNG1
# 4H797-bH = molecular target: T11, 4H797-bH; experiment: two-hybrid library CCNG1
# 4H968-bH = molecular target: T12, 4H968-bH; experiment: two-hybrid library CCNG1
# 4H780-bH = molecular target: T13, 4H780-bH; experiment: two-hybrid library CCNG1
# 4H918-bH = molecular target: T14, 4H918-bH; experiment: two-hybrid library CCNG1
# 4H953-bH = molecular target: T15, 4H953-bH; experiment: two-hybrid library CCNG1
# 4H797-bN = molecular target: T16, 4H797-bN; experiment: two-hybrid library CCNG1
# 4H780-bN = molecular target: T17, 4H780-bN; experiment: two-hybrid library CCNG1
# 4H968-bN = molecular target: T18, 4H968-bN; experiment: two-hybrid library CCNG1
# 4H953-bN = molecular target: T19, 4H953-bN; experiment: two-hybrid library CCNG1
# 4H918-bN = molecular target: T20, 4H918-bN; experiment: two-hybrid library CCNG1
# 4H855-bN = molecular target: T21, 4H855-bN; experiment: two-hybrid library CCNG1
# 4H883-bN = molecular target: T22, 4H883-bN; experiment: two-hybrid library CCNG1
# 4H967-bN = molecular target: T23, 4H967-bN; experiment: two-hybrid library CCNG1
# 4H754-bN = molecular target: T24, 4H754-bN; experiment: two-hybrid library CCNG1
# 4H908-bN = molecular target: T25, 4H908-bN; experiment: two-hybrid library CCNG1
# 4H56-AA = molecular target: T26, 4H56-AA; experiment: two-hybrid library CCmax; conditions: mean of both orientations
# 4H3438-AA = molecular target: T27, 4H3438-AA; experiment: two-hybrid library CCmax; conditions: mean of both orientations
# 4H_BCR = molecular target: T28, 4H_BCR; experiment: two-hybrid library CCmax; conditions: mean of both orientations
# 4H406-AA = molecular target: T29, 4H406-AA; experiment: two-hybrid library CCmax; conditions: mean of both orientations
# 4H_GCN4 = experiment: two-hybrid library CCmax; conditions: mean of both orientations
# 4H_APH = molecular target: T30, 4H_APH; experiment: two-hybrid library CCmax; conditions: mean of both orientations
# GCN2_T = experiment: two-hybrid library CCmax
# 4H452-AA = molecular target: T31, 4H452-AA; experiment: two-hybrid library CCmax; conditions: mean of both orientations
# 4H3073-AA = molecular target: T32, 4H3073-AA; experiment: two-hybrid library CCmax
# 4H347-AA = molecular target: T33, 4H347-AA; experiment: two-hybrid library CCmax; conditions: mean of both orientations
# 4H797-bA = molecular target: T34, 4H797-bA; experiment: two-hybrid library CCNG1
# 4H780-bA = molecular target: T35, 4H780-bA; experiment: two-hybrid library CCNG1
# 4H968-bA = molecular target: T36, 4H968-bA; experiment: two-hybrid library CCNG1
# 4H918-bA = molecular target: T37, 4H918-bA; experiment: two-hybrid library CCNG1
# 4H953-bA = molecular target: T38, 4H953-bA; experiment: two-hybrid library CCNG1
# 4H855-bA = molecular target: T39, 4H855-bA; experiment: two-hybrid library CCNG1
# 4H_GCN4, sequence (chain, as listed by the source): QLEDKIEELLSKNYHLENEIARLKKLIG
binder,measurement,setting,value
DKNAALKAKNAALKAKAAALKAKLAAIKG [APC5531-AA],interaction score,APC9182-AA,-1.96
same,interaction score,APC5531-AA,-1.63
same,interaction score,APC9141-AA,-1.97
same,interaction score,APC8516-AA,-1.6
same,interaction score,APC8401-AA,-1.77
same,interaction score,APC9291-AA,-1.72
same,interaction score,APC9806-AA,-1.95
same,interaction score,APC7524-AA,-1.84
same,interaction score,APC6088-AA,-1.44
DEIQELKKKIEELEREIWELKKENQELKR [4H780-bH],interaction score,4H855-bH,0.0924
same,interaction score,4H797-bH,-0.654
same,interaction score,4H968-bH,-0.28
same,interaction score,4H780-bH,1.6
same,interaction score,4H918-bH,0.556
same,interaction score,4H953-bH,-0.153
DEIQQLKQKIQELEQEIQELKWENQELKQ [4H780-bN],interaction score,4H797-bN,-0.0265
same,interaction score,4H780-bN,1.99
same,interaction score,4H968-bN,-2.05
same,interaction score,4H953-bN,-0.748
same,interaction score,4H918-bN,-0.346
same,interaction score,4H855-bN,-0.732
DEIQQLKQENQELKQKNQELEWEIQELKQ [4H754-bN],interaction score,4H797-bN,-1.55
same,interaction score,4H780-bN,0.164
same,interaction score,4H883-bN,-1.38
same,interaction score,4H968-bN,-0.3
same,interaction score,4H967-bN,-0.968
same,interaction score,4H953-bN,-1.42
same,interaction score,4H918-bN,-1.04
same,interaction score,4H754-bN,0.447
same,interaction score,4H855-bN,-0.508
same,interaction score,4H908-bN,-1.55
DKNAALEAEIAALEAEIAALEAEIAALEG [4H3073-AA],interaction score,4H56-AA,-1.28
same,interaction score,4H3438-AA,1.51
same,interaction score,4H_BCR,-1.37
same,interaction score,4H406-AA,-1.6
same,interaction score,4H_GCN4,-0.626
same,interaction score,4H_APH,0.197
same,interaction score,GCN2_T,-1.05
same,interaction score,4H452-AA,-1.22
same,interaction score,4H3073-AA,-0.701
same,interaction score,4H347-AA,-1.33
DEIAQLKQKIAELEQEIAELKWENAQLKQ [4H780-bA],interaction score,4H797-bA,-0.749
same,interaction score,4H780-bA,1.22
same,interaction score,4H968-bA,-1.3
same,interaction score,4H918-bA,-0.303
same,interaction score,4H953-bA,-0.243
same,interaction score,4H855-bA,-0.574

# — article PMC10397247
